From patent US20100317083A1

Experiments:
[1] = biological target: human IgG3 purified from human plasma (human) (UniProt P01860); experiment: cell-based or functional assay
[2] = biological target: human IgG3 purified from human plasma (human) (UniProt P01860); experiment: SPR (BIAcore), IgG3 immobilized, EndoS(E235Q) injected, deglycosylated IgG flow cell as reference

Sequence of UniProt P01860 (P01860 whole entry, form in doubt): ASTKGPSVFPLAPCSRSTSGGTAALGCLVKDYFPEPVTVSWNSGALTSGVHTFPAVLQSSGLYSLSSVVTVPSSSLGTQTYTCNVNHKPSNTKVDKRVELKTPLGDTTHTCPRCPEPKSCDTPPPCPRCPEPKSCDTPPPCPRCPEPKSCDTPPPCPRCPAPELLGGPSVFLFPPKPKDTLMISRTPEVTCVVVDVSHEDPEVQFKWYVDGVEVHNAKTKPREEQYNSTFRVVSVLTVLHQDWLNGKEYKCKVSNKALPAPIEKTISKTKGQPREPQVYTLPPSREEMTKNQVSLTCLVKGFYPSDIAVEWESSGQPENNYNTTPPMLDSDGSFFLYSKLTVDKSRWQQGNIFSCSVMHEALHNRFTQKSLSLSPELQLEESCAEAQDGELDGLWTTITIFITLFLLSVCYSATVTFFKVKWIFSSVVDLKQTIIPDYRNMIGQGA

| Substance | SDS-PAGE migration of IgG after incubation with EndoS; LCA lectin blot [1] [kDa] | Kd [2] [nM] | koff [2] [s⁻¹] | kon [2] [M⁻¹ s⁻¹] |
| --- | --- | --- | --- | --- |
| EndoS (Endoglycosidase S) from S. pyogenes AP1, recombinant, without GST (from UniProt Q99Y92 37-995) (enzyme) | 3 | – | – | – |
| EndoS(E235Q), modified EndoS polypeptide lacking IgG endoglycosidase activity (from UniProt Q99Y92 37-995) (enzyme) | – | 83 | 0.0089 | 107000 |
